Measurements: article PMC10811509, “APP‐C31: An Intracellular Promoter of Both Metal‐Free and Metal‐Bound Amyloid‐β40 Aggregation and Toxicity in Alzheimer's Disease” (Advanced Science, 2023)

What was measured:
Conditions in all cases: both partners purified
amyloid‐β40 (Aβ40) [1] = biological target: T1, amyloid‐β40 (Aβ40); assay: ITC; APP-C31 600 µM in the syringe, Aβ40 30 µM in the cell; 20 mM HEPES, pH 7.4; 10 °C; one set of sites model
T1 construct: Amyloid-beta 40, cut from amyloid precursor protein (APP) by beta- and gamma-secretases; numbers count on: the Aβ peptide (Asp1 to Val40); Unlabelled peptide; Metal-treated samples (CuCl2, ZnCl2) are told apart by the assay; also called metal-free Aβ40; Cu(II)–Aβ40 and Zn(II)–Aβ40 when treated with CuCl2 or ZnCl2; source: bought: Peptide Institute (HPLC-purified) or Anaspec
T1 sequence (peptide, as listed by the source): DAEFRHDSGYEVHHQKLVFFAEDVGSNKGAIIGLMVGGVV

[2] = biological target: T2, uniformly ^15N‐labeled Aβ40 (uniformly 15N-labeled); assay: NMR titration; 2D 1H–15N HSQC (700 MHz); 15N-labeled Aβ40 40 µM, CuCl2 20 µM, APP-C31 200 µM; 20 mM HEPES, pH 7.4; 10 °C
T2 construct: Amyloid-beta 40, cut from amyloid precursor protein (APP); numbers count on: the Aβ peptide (Asp1 to Val40); also called ^15N‐labeled Aβ40 monomer; source: bought: rPeptide Inc
T2 sequence (peptide, as listed by the source): as above

amyloid‐β40 (Aβ40) [3] = biological target: T1, amyloid‐β40 (Aβ40); assay: native MS; ESI–MS; APP-C31 100 µM incubated with Aβ40 100 µM, 20 mM ammonium acetate, pH 7.3, 37 °C, 2 h, no agitation; diluted tenfold before injection; no metal

B1: APP‐C31 (APP_(665–695)) (peptide)
peptide: AAVTPEERHLSKMQQNGYENPTYKFFEQMQN
notes: C-terminal 31 residues of amyloid precursor protein (APP), produced by caspase cleavage; residues 665-695; source: bought: AnaSpec
Kd (amyloid‐β40 (Aβ40) [1]): 150 ± 11.4 µM | dH (amyloid‐β40 (Aβ40) [1]): -1.5 ± 0.3 kcal/mol | binding result [2]: binds | stoichiometry N (amyloid‐β40 (Aβ40) [3]): 1
